{"source": "paper PMC10571791", "key": {"[1]": {"assay": "cell-surface flow cytometry, MCF-7"}, "[2]": {"assay": "cell-surface flow cytometry, MDA-MB-231"}, "[3]": {"settings": "glycan lost, control: WT-PD-L1 MCF-7 cells"}, "[4]": {"settings": "glycan lost, control: WT-PD-L1 MDA cells"}}, "data": [{"substance": "PD-L1: N200A-PD-L1", "values": [{"measurement": "expression_or_secretion", "setting": "[1]; [3]", "value": "no change"}, {"measurement": "expression_or_secretion", "setting": "[2]; [4]", "value": "no change"}]}, {"substance": "PD-L1: kifunensine", "values": [{"measurement": "expression_or_secretion", "setting": "[1]; glycan changed form, control: vehicle-treated WT-PD-L1 MCF-7 cells", "value": "no change"}, {"measurement": "expression_or_secretion", "setting": "[2]; glycan changed form, control: vehicle-treated WT-PD-L1 MDA cells", "value": "no change"}]}, {"substance": "PD-L1: N35A-PD-L1", "values": [{"measurement": "expression_or_secretion", "setting": "[1]; [3]", "value": "no change"}, {"measurement": "expression_or_secretion", "setting": "[2]; [4]", "value": "no change"}]}, {"substance": "PD-L1: N192A-PD-L1", "values": [{"measurement": "expression_or_secretion", "setting": "[1]; [3]", "value": "no change"}, {"measurement": "expression_or_secretion", "setting": "[2]; [4]", "value": "no change"}]}, {"substance": "PD-L1: N219A-PD-L1", "values": [{"measurement": "expression_or_secretion", "setting": "[1]; [3]", "value": "no change"}, {"measurement": "expression_or_secretion", "setting": "[2]; [4]", "value": "no change"}]}]}
